In FireProtDB (doi:10.1021/acs.biochem.5b01204):

B1: Sliding clamp, P04525 (parent)
chain: MKLSKDTTALLKNFATINSGIMLKSGQFIMTRAVNGTTYAEANISDVIDFDVAIYDLNGFLGILSLVNDDAEISQSEDGNIKIADARSTIFWPAADPSTVVAPNKPIPFPVASAVTEIKAEDLQQLLRVSRGLQIDTIAITVKEGKIVINGFNKVEDSALTRVKYSLTLGDYDGENTFNFIINMANMKMQPGNYKLLLWAKGKQGAAKFEGEHANYVVALEADSTHDF

Variants of: B1
Details: Enterobacteria phage T4; pH 7.4; 25 °C; Urea; CD; Sodium Phosphate Buffer; structure 1CZD; whole UniProt chain shown

Variant	denaturant midpoint (higher = more stable)
MKLSKDTTALLKNFATINSGIMLKSGQFIMTRAVNGTTYAEANISDVIDFDVAIYDLNGFLGILSLVNDDAEISQSEDGNIKIADARSTIFFPAADPSTVVAPNKPIPFPVASAVTEIKAEDLQQLLRVSRGLQIDTIAITVKEGKIVINGFNKVEDSALTRVKYSLTLGDYDGENTFNFIINMANMKMQPGNYKLLLWAKGKQGAAKFEGEHANYVVALEADSTHDF [W92F]	2 M

Same assay, conditions: Enterobacteria phage T4; pH 7.4; 25 °C; Urea; CD; Sodium Phosphate Buffer; transition: 3; structure 1CZD; whole UniProt chain shown

Variant	denaturant midpoint (higher = more stable)
MKLSKDTTALLKNFATINSGIMLKSGQFIMTRAVNGTTYAEANISDVIDFDVAIYDLNGFLGILSLVNDDAEISQSEDGNIKIADARSTIFWPAADPSTVVAPNKPIPFPVASAVTEIKAEDLQQLLRVSRGLQIDTIAITVKEGKIVINGFNKVEDSALTRVKYSLTLGDYDGENTFNFIINMANMKMQPGNYKLLLFAKGKQGAAKFEGEHANYVVALEADSTHDF [W199F]	1.9 M
